Measured values from the RNAGym collection of RNA variant scans (doi:10.7554/elife.80360).

B1: Hairpin Ribozyme (parent)
chain: GUCCUCUUUCACGUGCGCGUGAAAGAGAGAAGUGAACCAGAGAAACACACGUUGUGGUAUAUUACCUGGUA

Variants of: B1
Assay: self-cleavage, relative activity (ratio to wild type); higher = more cleavage; co-transcriptional

Variant	self-cleavage
C4U G19U	0.312
C50A U63A	0.0698
C46U U67C	0.11
A43U A61U	0.174
A35U A71C	1.57
C46A C66G	0.14
A24G G40C	0.188
G13U C66U	0.502
C18A A26U	0.898
C16G G27A	0.37
U8G U62G	0.163
G34A G40U	0.198
C10U A64C	0.213
A11G C16G	0.592
G27U A64C	0.173
C4G A31U	0.183
U20G A23C	0.83
A28U C46U	0.046
G32A G56U	0.221
G32U C66A	0.229
C16U U62C	0.384
C38G A61U	0.227
U9C G25C	0.314
U8C A24C	0.196

Variant	self-cleavage
U20A A61C	0.156
U67C G68A	0.231
C18A U70A	0.916
G42A U62G	0.154
A28U U52C	0.768
C4G U52G	0.184
C10U A39U	0.334
G29A A41U	0.156
C6G G51U	0.44
G13A G51A	0.87
G27A A43U	0.052
A59G A64C	0.273
U8C U9G	0.374
U14A U70C	1.01
G40U G51A	0.283
U5A C50G	0.0755
G19U U62C	0.256
C18U U52C	0.928
A36G U67C	0.335
A31C C37G	0.146
G17A G69U	0.203
A28C C50A	0.151
C46A U53G	0.159
A28G C65A	0.884

Variant	self-cleavage
G19A C46U	0.165
U9C G13U	0.469
G32A G42U	0.186
G13U C48A	0.0958
G21A A44G	0.142
G29U G54U	0.207
G17A G54U	0.667
A59C G69U	0.131
G19A A45G	0.195
C46A C50A	0.117
G29U U67G	0.132
C12G A36G	0.843
C10G A30G	0.143
A23G G27A	0.496
U2G U14A	0.216
U7C U58G	0.815
C3G C16G	0.34
G13U U70C	0.784
A30G U63C	0.185
U33C A61G	0.0977
C4A C65A	0.148
G32U G68U	0.114
U9G A36U	0.431
G25U C48U	0.163

Variant	self-cleavage
G13U G42A	0.16
U8G A23G	0.759
A11C C16U	0.811
A23C G32C	0.0217
A23C G32A	0.102
G56U	0.157
C3U A30C	0.161
A39C U58A	0.231
A61G A71U	0.393
U2A U8C	0.162
U33G A39G	0.119
A35G C66U	0.553
G29A A49U	0.122
A28C U52G	0.301
U8C G17A	0.632
U52A C66G	0.149
G54U G57A	0.164
C4A U9G	0.151
G27A G57C	0.184
A44C U52C	0.213
A35C A71C	1.27
U55A U63A	0.0786
G19A C66U	0.344
G19A C66G	0.168

Variant	self-cleavage
U5G A22C	0.24
A49G U60C	0.722
C38G G68C	0.591
A35U A64C	0.143
U8A A39G	0.279
C16U A31U	0.211
U5C U9G	0.187
U5G U60G	0.353
G13U G68A	0.207
C16U C38G	0.206
G17A A35C	0.945
C6G A59C	0.0783
U67G A71U	0.918
A61C U70G	0.146
C48G C50G	0.137
U2A A24U	0.29
G13U A24C	0.563
G15U A22U	0.996
A22G G51A	1.05
G15C A30C	0.377
A39G A47C	0.166
G27U U55C	0.113
U33A G69A	0.0983
C18G U63C	0.276

Variant	self-cleavage
A28U G42C	0.0977
U9C A44U	0.247
A22C A61C	0.3
U14C C18A	0.933
U33G U55A	0.11
U33G U55G	0.0574
U14A C66U	0.335
G29U U33A	0.169
A41G A45U	0.105
C6G U33A	0.155
G19C U70G	0.695
G17U G29C	0.105
G40A G69A	0.122
G29C U67C	0.0789
U5G G56C	0.124
C16A A28U	0.611
C10G A35G	0.656
U33G C66U	0.21
A23U U70G	0.647
A31G U62C	0.0965
A44U U55A	0.282
G19C U33C	0.173
A36C A44U	0.307
C37U A44C	0.1

Variant	self-cleavage
C38A A44G	0.144
G40U C66A	0.593
G42A G51U	0.207
U14A U63G	0.0901
G1U U5A	0.163
C6A C37U	0.505
C10A G34C	0.942
C3A A64C	0.197
C4G C66A	0.277
C3G U52C	0.359
A36G G40A	0.349
C37A A44G	0.208
G13U G40U	0.153
A35U A59C	0.302
U14C A71U	0.87
C6U U52C	0.773
G17A G40C	0.153
G34A C38U	0.655
C37G A61G	0.155
A11U A23C	0.652
C6G C38G	0.0998
C6A A39G	0.243
C18G G42A	0.179
